From patent US6825035, “Compositions and methods for modulating expression within smooth muscle cells” (Setagon, Inc.)

Molecular target: T1, Serum response factor (SRF) (UniProt D3ZHH8 D3ZHH8:1-504)
T1 sequence: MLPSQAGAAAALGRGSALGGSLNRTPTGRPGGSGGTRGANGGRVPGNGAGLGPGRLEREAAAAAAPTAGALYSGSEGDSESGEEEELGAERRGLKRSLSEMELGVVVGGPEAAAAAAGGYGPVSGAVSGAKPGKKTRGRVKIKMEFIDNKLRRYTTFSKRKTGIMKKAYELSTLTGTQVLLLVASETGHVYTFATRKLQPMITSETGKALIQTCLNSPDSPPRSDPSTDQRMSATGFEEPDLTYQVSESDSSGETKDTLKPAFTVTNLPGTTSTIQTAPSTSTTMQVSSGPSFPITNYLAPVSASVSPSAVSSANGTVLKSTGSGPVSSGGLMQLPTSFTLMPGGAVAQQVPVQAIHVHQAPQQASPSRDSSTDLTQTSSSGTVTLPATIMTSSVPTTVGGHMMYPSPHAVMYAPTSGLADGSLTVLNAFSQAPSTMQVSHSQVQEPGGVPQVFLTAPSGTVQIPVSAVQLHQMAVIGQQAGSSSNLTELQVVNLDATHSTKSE
Test: EMSA; supershift with SRF antibody; binds more avidly than CArG A and B; 10 mM Tris pH 7.5, 100 mM KCl, 50 mM NaCl, 1 mM EDTA, poly(dI-dC), room temp
Conditions: protein: synthetic; tags: endogenous SRF in rat aortic SMC nuclear extract, identified by SRF antibody supershift; chain copies: 2; label: 32P end label
Protocol: 6.1.4 Preparation of Nuclear Extracts, In Vitro Synthesis of SRF, and Electromobility Shift Assays Nuclear extracts were prepared from confluent rat aortic SMCs using the methods of Dignam (Dignam J D, et al., *Nucleic Acids Res.* 1983;11:1475–1489). Culture conditions matched those used for transient transfection assays. Oligonucleotides used in EMSAs were purchased commercially (Operon Technologies) and include the following: CArG A, 5'-[…]-3' (SEQ ID NO:14); CArG B, 5'-[…]-3' (SEQ ID NO:15); Intronic CArG, 5'-[…]-3' (SEQ ID NO:16). Probes were ^32P end labeled and annealed. All probes were purified on a 6% acrylamide gel, eluted in TE, and precipitated twice in ethanol.
EMSAs were performed with 20 µl of binding reaction that included=30 pg of labeled probe, 5 µg of SMC nuclear extract 0.2 to 0.6 µg of poly (dI-dC) in 1×binding buffer (10 mM TrisHCl (pH 7.5), 100 mM KCI, 50 mM NaCl, 1 mM dithiothreitol, 1 mM EDTA, and 5% glycerol). Following a 30 min incubation at room temperature, the samples were subjected to electrophoresis on a 5% polyacrylamide gel, which had been pre-run at 170V for 1 hr. Electrophoresis was performed at 170V in 0.5×TBE (45 mM Tris Borate, 1 mM EDTA). Gels were dried and exposed to film for 24–72 h at −70 ° C. […]

B1: Intronic CArG (SM alpha-actin first intron) (dsDNA)
DNA 1: TTTTACCTAATTAGGAAATG
DNA 2: CATTTCCTAATTAGGTAAAA
B1: binds.
